We go through four sequences from the supplement of paper PMC5998384.

Series [1] relates to HeLa Kyoto. The series is described as follows: solubility in G1/S (NP-40 vs SDS abundance) (log2 ratio); higher = more soluble. Conditions: cell cycle stage: G1/S.
The subject of series [2] is HeLa Kyoto. The series is described as follows: thermal stability score vs G1/S (z-score of summed log2 fold changes over temperatures); higher = more thermally stable than in G1/S.
Series [3] concerns HeLa Kyoto. Briefly: melting temperature (median over replicates), in situ; higher = more thermally stable.
Series [4] concerns HeLa Kyoto. The series is described as follows: solubility change mitosis vs G1/S (difference of NP-40 vs SDS log2 ratios) (log2 ratio difference); higher = more soluble in mitosis.
Setting [5] is: cell cycle stage: early G1 (4.5 h after nocodazole release).
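For melting temperature (median over replicates), in situ in this document: HeLa Kyoto cells synchronized by double thymidine or nocodazole block, proteins quantified by TMT10plex mass spectrometry, three independent biological replicates.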
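For solubility change mitosis vs G1/S (difference of NP-40 vs SDS log2 ratios) in this document: synchronized HeLa Kyoto cells (double thymidine block for G1/S, nocodazole release for mitosis), protein amounts in NP-40 versus SDS lysates quantified by mass spectrometry, three biological replicates.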
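For solubility in G1/S (NP-40 vs SDS abundance) in this document: HeLa Kyoto cells arrested at G1/S by double thymidine block, proteins quantified by TMT10plex mass spectrometry in mild NP-40 versus SDS extracts, three biological replicates.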
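For thermal stability score vs G1/S (z-score of summed log2 fold changes over temperatures) in this document: synchronized HeLa Kyoto cells, proteins quantified by TMT10plex mass spectrometry, three biological replicates, mitosis taken 0.5 h after nocodazole release, G1/S directly after double thymidine block.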

Turning to “MWALCSLLRSAAGRTMSQGRTISQAPARRERPRKDPLRHLRTREKRGPSGCSGGPNTVYLQVVAAGSRDSGAALYVFSEFNRYLFNCGEGVQRLMQEHKLKVARLDNIFLTRMHWSNVGGLSGMILTLKETGLPKCVLSGPPQLEKYLEAIKIFSGPLKGIELAVRPHSAPEYEDETMTVYQIPIHSEQRRGKHQPWQSPERPLSRLSPERSSDSESNENEPHLPHGVSQRRGVRDSSLVVAFICKLHLKRGNFLVLKAKEMGLPVGTAAIAPIIAAVKDGKSITHEGREILAEELCTPPDPGAAFVVVECPDESFIQPICENATFQRYQGKADAPVALVVHMAPASVLVDSRYQQWMERFGPDTQHLVLNENCASVHNLRSHKIQTQLNLIHPDIFPLLTSFRCKKEGPTLSVPMVQGECLLKYQLRPRREWQRDAIITCNPEEFIVEALQLPNFQQSVQEYRRSAQDGPAPAEKRSQYPEIIFLGTGSAIPMKIRNVSATLVNISPDTSLLLDCGEGTFGQLCRHYGDQVDRVLGTLAAVFVSHLHADHHTGLPSILLQRERALASLGKPLHPLLVVAPNQLKAWLQQYHNQCQEVLHHISMIPAKCLQEGAEISSPAVERLISSLLRTCDLEEFQTCLVRHCKHAFGCALVHTSGWKVVYSGDTMPCEALVRMGKDATLLIHEATLEDGLEEEAVEKTHSTTSQAISVGMRMNAEFIMLNHFSQRYAKVPLFSPNFSEKVGVAFDHMKVCFGDFPTMPKLIPPLKALFAGDIEEMEERREKRELRQVRAALLSRELAGGLEDGEPQQKRAHTEEPQAKKVRAQ [ELAC2]”, in the series on HeLa Kyoto [1], the “solubility in G1/S (log2)” value was 0.0837. Moreover, the thermal stability score is -1.66 in the series on HeLa Kyoto [2] (setting [5]) and -2.38 with HeLa Kyoto [2] (cell cycle stage: mitosis). Moreover, the melting temperature in the series on HeLa Kyoto [3] (cell cycle stage: G1/S) was determined as 56.2 °C; in the series with HeLa Kyoto [3] (cell cycle stage: mitosis), 56.8 °C. In addition, the “solubility change mitosis (log2)” value in the series on HeLa Kyoto [4] was -0.0127.
On to “MWAVLRLALRPCARASPAGPRAYHGDSVASLGTQPDLGSALYQENYKQMKALVNQLHERVEHIKLGGGEKARALHISRGKLLPRERIDNLIDPGSPFLELSQFAGYQLYDNEEVPGGGIITGIGRVSGVECMIIANDATVKGGAYYPVTVKKQLRAQEIAMQNRLPCIYLVDSGGAYLPRQADVFPDRDHFGRTFYNQAIMSSKNIAQIAVVMGSCTAGGAYVPAMADENIIVRKQGTIFLAGPPLVKAATGEEVSAEDLGGADLHCRKSGVSDHWALDDHHALHLTRKVVRNLNYQKKLDVTIEPSEEPLFPADELYGIVGANLKRSFDVREVIARIVDGSRFTEFKAFYGDTLVTGFARIFGYPVGIVGNNGVLFSESAKKGTHFVQLCCQRNIPLLFLQNITGFMVGREYEAEGIAKDGAKMVAAVACAQVPKITLIIGGSYGAGNYGMCGRAYSPRFLYIWPNARISVMGGEQAANVLATITKDQRAREGKQFSSADEAALKEPIIKKFEEEGNPYYSSARVWDDGIIDPADTRLVLGLSFSAALNAPIEKTDFGIFRM [MCCC2]”, for which the “solubility in G1/S (log2)” value in the series with HeLa Kyoto [1] was determined as 0.0208. The thermal stability score with HeLa Kyoto [2] (setting [5]) is -3.15; in the series on HeLa Kyoto [2] (cell cycle stage: mitosis) it was -2.72. Also, the melting temperature in the series with HeLa Kyoto [3] (cell cycle stage: G1/S) is 53.2 °C; in the series with HeLa Kyoto [3] (cell cycle stage: mitosis), 53.7 °C. The “solubility change mitosis (log2)” value in the series with HeLa Kyoto [4] was -0.128.
As for “MWDQGGQPWQQWPLNQQQWMQSFQHQQDPSQIDWAALAQAWIAQREASGQQSMVEQPPGMMPNGQDMSTMESGPNNHGNFQGDSNFNRMWQPEWGMHQQPPHPPPDQPWMPPTPGPMDIVPPSEDSNSQDSGEFAPDNRHIFNQNNHNFGGPPDNFAVGPVNQFDYQHGAAFGPPQGGFHPPYWQPGPPGPPAPPQNRRERPSSFRDRQRSPIALPVKQEPPQIDAVKRRTLPAWIREGLEKMEREKQKKLEKERMEQQRSQLSKKEKKATEDAEGGDGPRLPQRSKFDSDEEEEDTENVEAASSGKVTRSPSPVPQEEHSDPEMTEEEKEYQMMLLTKMLLTEILLDVTDEEIYYVAKDAHRKATKAPAKQLAQSSALASLTGLGGLGGYGSGDSEDERSDRGSESSDTDDEELRHRIRQKQEAFWRKEKEQQLLHDKQMEEEKQQTERVTKEMNEFIHKEQNSLSLLEAREADGDVVNEKKRTPNETTSVLEPKKEHKEKEKQGRSRSGSSSSGSSSSNSRTSSTSSTVSSSSYSSSSGSSRTSSRSSSPKRKKRHSRSRSPTIKARRSRSRSYSRRIKIESNRARVKIRDRRRSNRNSIERERRRNRSPSRERRRSRSRSRDRRTNRASRSRSRDRRKIDDQRGNLSGNSHKHKGEAKEQERKKERSRSIDKDRKKKDKEREREQDKRKEKQKREEKDFKFSSQDDRLKRKRESERTFSRSGSISVKIIRHDSRQDSKKSTTKDSKKHSGSDSSGRSSSESPGSSKEKKAKKPKHSRSRSVEKSQRSGKKASRKHKSKSRSR [PNISR]”, the “solubility in G1/S (log2)” value in the series on HeLa Kyoto [1] is -0.83. Moreover, the values for the thermal stability score in the series with HeLa Kyoto [2] (setting [5]) and with HeLa Kyoto [2] (cell cycle stage: mitosis) were -6.44 and -8.27, respectively. Moreover, the figures for the melting temperature in the series with HeLa Kyoto [3] (cell cycle stage: G1/S) and with HeLa Kyoto [3] (cell cycle stage: mitosis) were 59.9 °C and 54.5 °C, respectively. The “solubility change mitosis (log2)” value with HeLa Kyoto [4] is 0.456.
For “MWGSDRLAGAGGGGAAVTVAFTNARDCFLHLPRRLVAQLHLLQNQAIEVVWSHQPAFLSWVEGRHFSDQGENVAEINRQVGQKLGLSNGGQVFLKPCSHVVSCQQVEVEPLSADDWEILELHAVSLEQHLLDQIRIVFPKAIFPVWVDQQTYIFIQIVALIPAASYGRLETDTKLLIQPKTRRAKENTFSKADAEYKKLHSYGRDQKGMMKELQTKQLQSNTVGITESNENESEIPVDSSSVASLWTMIGSIFSFQSEKKQETSWGLTEINAFKNMQSKVVPLDNIFRVCKSQPPSIYNASATSVFHKHCAIHVFPWDQEYFDVEPSFTVTYGKLVKLLSPKQQQSKTKQNVLSPEKEKQMSEPLDQKKIRSDHNEEDEKACVLQVVWNGLEELNNAIKYTKNVEVLHLGKVWIPDDLRKRLNIEMHAVVRITPVEVTPKIPRSLKLQPRENLPKDISEEDIKTVFYSWLQQSTTTMLPLVISEEEFIKLETKDGLKEFSLSIVHSWEKEKDKNIFLLSPNLLQKTTIQVLLDPMVKEENSEEIDFILPFLKLSSLGGVNSLGVSSLEHITHSLLGRPLSRQLMSLVAGLRNGALLLTGGKGSGKSTLAKAICKEAFDKLDAHVERVDCKALRGKRLENIQKTLEVAFSEAVWMQPSVVLLDDLDLIAGLPAVPEHEHSPDAVQSQRLAHALNDMIKEFISMGSLVALIATSQSQQSLHPLLVSAQGVHIFQCVQHIQPPNQEQRCEILCNVIKNKLDCDINKFTDLDLQHVAKETGGFVARDFTVLVDRAIHSRLSRQSISTREKLVLTTLDFQKALRGFLPASLRSVNLHKPRDLGWDKIGGLHEVRQILMDTIQLPAKYPELFANLPIRQRTGILLYGPPGTGKTLLAGVIARESRMNFISVKGPELLSKYIGASEQAVRDIFIRAQAAKPCILFFDEFESIAPRRGHDNTGVTDRVVNQLLTQLDGVEGLQGVYVLAATSRPDLIDPALLRPGRLDKCVYCPPPDQVSRLEILNVLSDSLPLADDVDLQHVASVTDSFTGADLKALLYNAQLEALHGMLLSSGLQDGSSSSDSDLSLSSMVFLNHSSGSDDSAGDGECGLDQSLVSLEMSEILPDESKFNMYRLYFGSSYESELGNGTSSDLSSQCLSAPSSMTQDLPGVPGKDQLFSQPPVLRTASQEGCQELTQEQRDQLRADISIIKGRYRSQSGEDESMNQPGPIKTRLAISQSHLMTALGHTRPSISEDDWKNFAELYESFQNPKRRKNQSGTMFRPGQKVTLA [PEX1]”, the “solubility in G1/S (log2)” value in the series with HeLa Kyoto [1] was -0.083. Further, the thermal stability score with HeLa Kyoto [2] (setting [5]) is -0.296; in the series with HeLa Kyoto [2] (cell cycle stage: mitosis), -0.803. Moreover, the values for the melting temperature with HeLa Kyoto [3] (cell cycle stage: G1/S) and in the series with HeLa Kyoto [3] (cell cycle stage: mitosis) were 51.2 °C and 50.6 °C, respectively. In the series on HeLa Kyoto [4], the “solubility change mitosis (log2)” value is -0.0568.
